Experimental data taken from patent publication US20170313770A1 (ORDER MADE MEDICAL RESEARCH, published 2017).

Target: IMI4C4a antibody (monoclonal antibody produced from Mouse-Mouse hybridoma IMI4C4a)
Test: competitive inhibition ELISA, peptide preincubated with IMI4C4a (333 pM), immobilized ICD4

Chain of IMI4C4a antibody (monoclonal antibody produced from Mouse-Mouse hybridoma IMI4C4a) (VH, as listed by the source, chain 1 of 2): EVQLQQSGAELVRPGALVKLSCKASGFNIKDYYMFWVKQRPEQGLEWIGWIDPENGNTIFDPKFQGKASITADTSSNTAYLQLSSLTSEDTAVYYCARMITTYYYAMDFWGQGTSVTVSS
Chain of IMI4C4a antibody (monoclonal antibody produced from Mouse-Mouse hybridoma IMI4C4a) (V domain, as listed by the source, chain 2 of 2): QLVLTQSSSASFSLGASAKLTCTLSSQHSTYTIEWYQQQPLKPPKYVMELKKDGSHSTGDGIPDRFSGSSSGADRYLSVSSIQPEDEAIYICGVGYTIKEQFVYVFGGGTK

Row | Binder | molar ratio to the antibody at which an inhibitory effect started | molar ratio to the antibody giving significant inhibition | molar ratio to the antibody without inhibition
1 | TQKAGLPSKNLTVSQNQ [ICD4_242-258 (chemically synthesized peptide)] | 50 fold molar ratio relative to the antibody concentration | ≥ 500 fold molar ratio relative to the antibody concentration | 
2 | THCHETEESTIKDSTT [ICD4_227-242 (chemically synthesized peptide)] |  |  | > 10000 fold molar ratio relative to the antibody concentration
3 | STIKDSTTQKAGLPSK [ICD4_235-250 (chemically synthesized peptide)] |  |  | > 10000 fold molar ratio relative to the antibody concentration
